Measurements published in patent publication US20250018040A1 (UNITED STATES OF AMERICA AS REPRESENTED BY THE SECRETARY …, published 2025).

Key:
[1] = target: T1, shed mesothelin (UniProt Q13421 296-585, limits assumed); test: Western blot of OVCAR-8 growth medium
T1 construct: also called Shed MSLN; mesothelin shed by OVCAR-8 cells
Method: (§1) A Western blot assay was carried out to test the ability of mAb 15B6 or control mAb MN to bind to full length Fc-mesothelin and shed mesothelin, which had been shed by OVCAR-8 cells. Equal amounts of OVCAR-8 cell growth media were collected. The proteins were resolved by SDS gel electrophoresis. The bands were detected by Western blot using the antibodies MN and/or 15B6. Full length mesothelin attached to an Fc protein was used as positive control and reacts with both antibodies.

[2] = target: T2, full length Fc-mesothelin (UniProt Q13421 296-598, limits assumed); test: Western blot
T2 construct: it is written here as in the name; also called Fc-MSLN; full length mesothelin attached to an Fc protein; not shown: Fc protein
Method: as §1

[3] = target: T2, full length Fc-mesothelin; test: flow cytometry: Fc-mesothelin bound to 293T cells transfected with the CAR vector, detected with fluorescent anti-Fc antibody (column: Expressed by 293T cells?)
Method: 293T cells were independently transduced with the CAR-T vectors. Expression of each Fv by the 293T cells was tested. The CAR-T vectors were transfected into 293T cells. After two days of culture, Fc-mesothelin was bound to the cells. The bound Fc protein was detected by a secondary anti-Fc-antibody conjugated to a fluorescent dye using flow cytometry.

T2 sequence (Q13421 other isoform, or with tags, fused parts or gaps limits assumed): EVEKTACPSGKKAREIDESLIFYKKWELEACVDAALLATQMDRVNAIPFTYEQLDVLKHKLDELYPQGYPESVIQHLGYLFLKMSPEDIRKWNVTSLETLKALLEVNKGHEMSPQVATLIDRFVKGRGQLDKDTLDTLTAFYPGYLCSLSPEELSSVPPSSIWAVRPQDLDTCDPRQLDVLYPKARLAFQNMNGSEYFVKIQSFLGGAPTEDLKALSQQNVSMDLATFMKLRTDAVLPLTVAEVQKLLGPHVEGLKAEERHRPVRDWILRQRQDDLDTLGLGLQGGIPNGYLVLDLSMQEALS
T1 sequence (Q13421 other isoform, or with tags, fused parts or gaps limits assumed): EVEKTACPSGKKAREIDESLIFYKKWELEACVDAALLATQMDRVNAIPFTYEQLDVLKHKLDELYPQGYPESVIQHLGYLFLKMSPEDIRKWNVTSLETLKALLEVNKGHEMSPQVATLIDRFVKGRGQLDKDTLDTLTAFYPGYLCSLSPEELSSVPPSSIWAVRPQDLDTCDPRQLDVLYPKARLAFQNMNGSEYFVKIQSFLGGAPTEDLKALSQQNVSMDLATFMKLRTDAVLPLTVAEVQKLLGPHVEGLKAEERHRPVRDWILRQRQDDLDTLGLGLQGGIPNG

B1: mAb 15B6 (antibody, mouse IgG2b, V domains shown)
VH: EVQLQQSGPVLVKPGASVKISCKASGYSFTGYYMHWVRQSLVKRLEWIGRINPYTGVPSYKHNFKDKASLTVDKSSSTAYMELHSLTSEDSAVYYCARELGGYWGQGTTLTVSS
VL: QAVVTQESALTTSPGETVTLTCRSSTGAVTTGNYPNWVQEKPDHLFTGLIAGTNNRAPGVPARFSGSLIGDKAALTITGAQTEDEAIYFCALWFSSHWVFGGGTKLTVL
notes: Murine IgG2b; For flow cytometry it was conjugated to ALEXA FLUOR 647; also called monoclonal antibody 15B6; 15B6 (IgG2b)
B1: no binding [1]; binds [2].

B2: CAR Construct No. 2, 15B6 scFv (Vh-lin-Vl) (other)
chain: MEVQLQQSGPVLVKPGASVKISCKASGYSFTGYYMHWVRQSLVKRLEWIGRINPYTGVPSYKHNFKDKASLTVDKSSSTAYMELHSLTSEDSAVYYCARELGGYWGQGTTLTVSSGGGGSGGGGSGGGGSQAVVTQESALTTSPGETVTLTCRSSTGAVTTGNYPNWVQEKPDHLFTGLIAGTNNRAPGVPARFSGSLIGDKAALTITGAQTEDEAIYFCALWFSSHWVFGGGTKLTVLTSTTTPAPRPPTPAPTIASQPLSLRPEACRPAAGGAVHTRGLDFACDIYIWAPLAGTCGVLLLSLVITKRGRKKLLYIFKQPFMRPVQTTQEEDGCSCRFPEEEEGGCELRVKFSRSADAPAYQQGQNQLYNELNLGRREEYDVLDKRRGRDPEMGGKPRRKNPQEGLYNELQKDKMAEAYSEIGMKGERRRGKGHDGLYQGLSTATKDTYDALHMQALPPR
notes: Chimeric antigen receptor on 293T cells or T cells
B2: binds [3].
